Literature values as cited in article PMC3937454.

Assays:
[1] = target: Lys143 (UniProt position 161, ASHLRKLRKRL); conditions: not stated (lipid-free or lipid-bound state not specified for the quoted values)
[2] = target: Lys146 (UniProt position 164, LRKLRKRLLRD); conditions: not stated (lipid-free or lipid-bound state not specified for the quoted values)

Substance: Apolipoprotein E3 (apoE3) (Homo sapiens)
- pKa [1]: 9.5
- pKa [2]: 9.2
